The values that follow come from publication PMC12781872.

This assay concerns the target Dylight488-labelled Mtb RNAP core derivative (β' D359 4-azido-L-phenylalanine) (Mycobacterium tuberculosis) (UniProt P9WGZ1). Briefly: FRET or BRET. In general terms: In BRET a luciferase serves as donor, and the signal depends on an acceptor being close.

Several values for one entry are separate records, joined by “and”; a condition that tells them apart may be missing. Equal entries are not always repeated.

Regarding “TMR-labelled Mtb σ^F used in the FRET competition and titration assays (from UniProt P9WGI3 1-261) (natural protein)”, the Kd – broadly, the free concentration of one partner at which half of the binding sites on the other are occupied at equilibrium, for simple one-to-one binding – was 21.1 nM and 2.6 nM.
